Consider 3 molecules from US20250361296A1 (BIOCYTOGEN PHARMACEUTICALS BEIJING, published 2025).

T1: human SIGLEC16 on CHO-S-hSIGLEC16 cells (human, UniProt A6NMB1 17-434)
T1 chain: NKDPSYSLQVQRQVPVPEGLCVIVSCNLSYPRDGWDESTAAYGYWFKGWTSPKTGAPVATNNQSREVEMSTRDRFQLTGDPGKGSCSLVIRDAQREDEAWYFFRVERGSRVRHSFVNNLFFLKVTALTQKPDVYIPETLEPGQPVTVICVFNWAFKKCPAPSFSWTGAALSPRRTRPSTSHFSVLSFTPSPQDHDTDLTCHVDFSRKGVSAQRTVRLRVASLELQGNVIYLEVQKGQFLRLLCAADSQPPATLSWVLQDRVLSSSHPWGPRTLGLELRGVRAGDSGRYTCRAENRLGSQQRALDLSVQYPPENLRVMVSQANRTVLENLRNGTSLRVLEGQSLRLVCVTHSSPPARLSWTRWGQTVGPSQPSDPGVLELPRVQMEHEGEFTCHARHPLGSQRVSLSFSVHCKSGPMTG

T2: human SIGLEC2 on CHO-S-hSIGLEC2 cells (human, UniProt P20273 20-687)
T2 sequence: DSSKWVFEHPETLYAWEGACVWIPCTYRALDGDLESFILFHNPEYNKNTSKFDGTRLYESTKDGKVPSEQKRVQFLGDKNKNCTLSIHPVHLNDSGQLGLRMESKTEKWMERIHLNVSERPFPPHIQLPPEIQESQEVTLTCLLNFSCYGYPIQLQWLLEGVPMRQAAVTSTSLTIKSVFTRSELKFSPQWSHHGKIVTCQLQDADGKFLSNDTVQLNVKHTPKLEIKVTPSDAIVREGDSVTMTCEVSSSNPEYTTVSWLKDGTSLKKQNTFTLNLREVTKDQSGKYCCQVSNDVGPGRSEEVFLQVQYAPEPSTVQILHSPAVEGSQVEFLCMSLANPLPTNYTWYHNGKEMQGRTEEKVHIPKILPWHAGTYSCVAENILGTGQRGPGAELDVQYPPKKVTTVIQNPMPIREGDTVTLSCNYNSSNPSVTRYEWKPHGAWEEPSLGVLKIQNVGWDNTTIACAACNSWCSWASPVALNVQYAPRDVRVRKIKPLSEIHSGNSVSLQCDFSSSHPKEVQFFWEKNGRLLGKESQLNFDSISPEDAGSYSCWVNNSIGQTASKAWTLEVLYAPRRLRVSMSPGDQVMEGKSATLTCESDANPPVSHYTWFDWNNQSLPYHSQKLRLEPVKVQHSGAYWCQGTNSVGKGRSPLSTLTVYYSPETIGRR

B1: anti-SIGLEC15 antibody 10C9 (antibody, human IgG1, V domains shown)
VH: QVQLVQSGAEVKKPGATVKVSCKASGYTFTNYGFSWVRQAPGQGLEWMGWINTYNDNTNYAQKFQGRVTMTTDTSTSTAYMELRSLRSDDTAVYYCARDGLWFGELPHYFDYWGQGTLVTVSS
VL: DIQLTQSPLSSPVTLGQPASISCRSSQSLVNSDGETFLSWLQQRPGQPPRLLIYKISNRFSGVPDRFSGSGAGTDFTLKISRVEAEDVGVYYCMQATQFPHTFGQGTKLEIK
B2: anti-SIGLEC15 antibody 10A7 (antibody, human IgG1, V domains shown)
VH: EVQLVQSGGGLVQPGGSLRLSCAASGFTFSNYEMNWVRQAPGKGLEWISYISNSGSTIYYADSVKGRFTISRDDAKNSLYLQMNSLRAEDTAVYYCAREDYDSSGYYWFDPWGQGTPVTVSS
VL: DIQLTQSPSSVSASVGDRVTITCRASQGISSWLAWYQQKPGKAPKLLIYAASSLQSGVPSRFSGSGSGTDFTLTINSLQPEDFATYYCQQTNSFPLTFGGGTKVEIK
B3: anti-SIGLEC15 antibody 23F4 (antibody, human IgG1, V domains shown)
VH: QVQLQQWGAGLLKPSETLSLTCAVYGGSFSGYFWSWIRQPPGKGLEWIGEINHSGSTNYNPSLKSRVTLSVDTSKNQFSLKLSSVTAADTAVYYCAREGDSSSWGNWFDPWGQGTLVTVSS
VL: EIVLTQSPGTLSLSPGERATLSCRASQSVSSSYLAWYQQKPGQAPRFLIYGASSRATGIPDRFSGSGSGTDFTLTISRLEPEDFAVYYCQQFGNSPLTFGGGTKVEIK

Chain of human SIGLEC7 on CHO-S-hSIGLEC7 cells (Q9Y286 19-353): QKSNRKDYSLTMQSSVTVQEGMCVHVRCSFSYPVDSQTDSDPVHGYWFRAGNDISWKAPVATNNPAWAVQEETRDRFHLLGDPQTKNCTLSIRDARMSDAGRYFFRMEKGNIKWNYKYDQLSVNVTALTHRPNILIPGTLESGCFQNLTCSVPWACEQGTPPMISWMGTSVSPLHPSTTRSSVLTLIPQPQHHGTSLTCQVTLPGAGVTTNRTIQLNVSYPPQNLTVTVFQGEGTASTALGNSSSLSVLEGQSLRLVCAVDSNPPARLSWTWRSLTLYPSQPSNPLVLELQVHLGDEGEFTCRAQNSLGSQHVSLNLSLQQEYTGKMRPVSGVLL
Chain of human SIGLEC8 on CHO-S-hSIGLEC8 cells (Q9NYZ4 17-363): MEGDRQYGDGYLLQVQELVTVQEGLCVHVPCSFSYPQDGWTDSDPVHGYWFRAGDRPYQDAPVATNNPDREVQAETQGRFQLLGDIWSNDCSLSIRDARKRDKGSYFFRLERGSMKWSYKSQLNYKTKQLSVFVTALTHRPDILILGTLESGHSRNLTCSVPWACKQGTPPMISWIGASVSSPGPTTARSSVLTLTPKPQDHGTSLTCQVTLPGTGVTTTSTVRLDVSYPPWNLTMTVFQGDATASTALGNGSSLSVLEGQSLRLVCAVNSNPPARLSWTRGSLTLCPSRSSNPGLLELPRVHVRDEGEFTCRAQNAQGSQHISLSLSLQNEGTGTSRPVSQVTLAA
Chain of human SIGLEC12 on CHO-S-hSIGLEC12 cells (Q96PQ1 19-481): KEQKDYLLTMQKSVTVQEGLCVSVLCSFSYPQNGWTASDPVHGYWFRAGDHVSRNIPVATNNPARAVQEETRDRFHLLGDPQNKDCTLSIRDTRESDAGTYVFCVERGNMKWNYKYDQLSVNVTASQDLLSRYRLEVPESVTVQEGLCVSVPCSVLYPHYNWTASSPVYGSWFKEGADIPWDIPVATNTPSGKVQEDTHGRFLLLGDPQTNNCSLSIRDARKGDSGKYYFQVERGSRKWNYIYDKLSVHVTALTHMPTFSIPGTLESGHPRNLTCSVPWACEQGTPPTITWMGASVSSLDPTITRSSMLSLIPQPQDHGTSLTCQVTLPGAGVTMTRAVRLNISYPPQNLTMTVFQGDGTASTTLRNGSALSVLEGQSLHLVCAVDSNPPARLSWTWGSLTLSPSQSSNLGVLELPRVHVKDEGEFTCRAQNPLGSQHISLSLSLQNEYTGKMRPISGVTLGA
Chain of human SIGLEC9 on CHO-S-hSIGLEC9 cells (Q9Y336 18-348): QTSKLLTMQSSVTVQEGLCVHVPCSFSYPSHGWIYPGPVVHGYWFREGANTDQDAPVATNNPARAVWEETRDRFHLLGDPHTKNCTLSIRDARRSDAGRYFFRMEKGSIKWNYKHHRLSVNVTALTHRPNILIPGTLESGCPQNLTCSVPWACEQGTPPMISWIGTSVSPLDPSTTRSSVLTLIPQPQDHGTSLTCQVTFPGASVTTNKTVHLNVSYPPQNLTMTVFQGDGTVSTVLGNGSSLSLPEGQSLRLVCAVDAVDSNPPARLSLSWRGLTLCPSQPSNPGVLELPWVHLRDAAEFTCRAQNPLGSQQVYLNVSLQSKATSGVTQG

The first assay has as its target T1, human SIGLEC16 on CHO-S-hSIGLEC16 cells. The assay is described as follows: flow cytometry, CHO-S cells expressing the target. As to Percentage of Positive Cells: test concentration or dose not given here. Here is the method: (§1) CHO-S-hSIGLEC15 cells, CHO-S-mSIGLEC15 cells, CHO-S-fasSIGLEC15 cells or CHO-S-dSIGLEC15 cells were transferred to a 96-well plate at a density of 5×10⁴ cells/well respectively. Serially diluted sample anti-SIGLEC15 antibodies were added to the 96-well plate, and incubated at 4° C. for 30 min. Then, the cells were incubated with the secondary antibody anti-hIgG-Fc-Alex Flour 647 (RL1-H) (Jackson ImmunoResearch Laboratories, Inc., 109-606-170) at 4° C. in the dark for 15 minutes before flow cytometry analysis.
(§2) Another similar experiment was performed to determine whether the anti-SIGLEC15 antibodies can bind with other SIGLEC family proteins. CHO-S-hSIGLEC1 cells (expressing hSIGLEC1, SEQ ID NO: 49)), CHO-S-hSIGLEC2 cells (expressing hSIGLEC2, SEQ ID NO: 50), CHO-S-hSIGLEC4 cells (expressing hSIGLEC4, SEQ ID NO: 51), CHO-S-hSIGLEC5 cells (expressing hSIGLEC5, SEQ ID NO: 52), CHO-S-hSIGLEC6 cells (expressing hSIGLEC6, SEQ ID NO: 53), CHO-S-hSIGLEC7 cells (expressing hSIGLEC7, SEQ ID NO: 54), CHO-S-hSIGLEC8 cells (expressing hSIGLEC8, SEQ ID NO: 55), CHO-S-hSIGLEC9 cells (expressing hSIGLEC9, SEQ ID NO: 56), CHO-S-hSIGLEC10 cells (expressing hSIGLEC10, SEQ ID NO: 57), CHO-S-hSIGLEC11 cells (expressing hSIGLEC11, SEQ ID NO: 58), CHO-S-hSIGLEC12 cells (expressing hSIGLEC12, SEQ ID NO: 59), CHO-S-hSIGLEC14 cells (expressing hSIGLEC14, SEQ ID NO: 60) or CHO-S-hSIGLEC16 cells (expressing hSIGLEC16, SEQ ID NO: 61) were used.
In general terms: Flow cytometry measures light scatter and fluorescence of single cells or particles in a stream.
For the molecule B1, the “Percentage of Positive Cells” value came out at 0.2% and the binding result is reported as “no binding”.
Turning to B2, the “Percentage of Positive Cells” value amounted to 0.2% and the binding result is “no binding”.
On the same counts, the results for B3 are 1.3% and “no binding”.

A further assay deals with T2, human SIGLEC2 on CHO-S-hSIGLEC2 cells. The assay is described as follows: flow cytometry, CHO-S cells expressing the target. As to Percentage of Positive Cells: test concentration or dose not given here. The procedure: as §1, §2
In the case of B1, the “Percentage of Positive Cells” value is 0.3% and the binding result was “no binding”.
For B2, the “Percentage of Positive Cells” value is 0% and the binding result is “no binding”.
As for B3, the “Percentage of Positive Cells” value came out at 1.8% and the binding result was “no binding”.

In another assay the target is human SIGLEC7 on CHO-S-hSIGLEC7 cells (human, UniProt Q9Y286 19-353). Kind of assay: flow cytometry, CHO-S cells expressing the target. As to Percentage of Positive Cells: test concentration or dose not given here. The procedure:
as §1, §2
In the case of B1, the “Percentage of Positive Cells” value was 0.4% and the binding result is “no binding”.
On the same counts, the results for B2 are 0.2% and “no binding”.
As to B3, the “Percentage of Positive Cells” value turned out to be 1% and the binding result is recorded as “no binding”.

Another assay concerns the target human SIGLEC9 on CHO-S-hSIGLEC9 cells (human, UniProt Q9Y336 18-348). Kind of assay: flow cytometry, CHO-S cells expressing the target. As to Percentage of Positive Cells: test concentration or dose not given here. Here is the method: as §1, §2
With B1, the “Percentage of Positive Cells” value was 0.1% and the binding result is listed as “no binding”.
Turning to B2, the “Percentage of Positive Cells” value was found to be 0.3% and the binding result is reported as “no binding”.
Take B3: the “Percentage of Positive Cells” value came out at 0.7% and the binding result is given as “no binding”.

The next assay concerns the target human SIGLEC8 on CHO-S-hSIGLEC8 cells (human, UniProt Q9NYZ4 17-363). The assay is described as follows: flow cytometry, CHO-S cells expressing the target. As to Percentage of Positive Cells: test concentration or dose not given here. Here is the method:
as §1, §2
On to B1, for which the “Percentage of Positive Cells” value turned out to be 0.3% and the binding result was “no binding”.
For B2, the “Percentage of Positive Cells” value was 0.1% and the binding result was “no binding”.
As for B3, the “Percentage of Positive Cells” value was found to be 0.6% and the binding result was “no binding”.

Another assay concerns the target human SIGLEC12 on CHO-S-hSIGLEC12 cells (human, UniProt Q96PQ1 19-481). Kind of assay: flow cytometry, CHO-S cells expressing the target. As to Percentage of Positive Cells: test concentration or dose not given here. The procedure: as §1, §2
As to B1, the “Percentage of Positive Cells” value came out at 0.1% and the binding result is recorded as “no binding”.
Consider B2, for which the “Percentage of Positive Cells” value was found to be 0% and the binding result is “no binding”.
Turning to B3, the “Percentage of Positive Cells” value came to 0.4% and the binding result is given as “no binding”.
